From patent US20110070246A1 (F HOFFMANN LAROCHE, published 2011)

Experiments:
[1] = biological target: T1, Soluble extracellular domain (ECD) of human CDCP1 (human, UniProt Q9H5V8 30-663); assay: Biacore SPR, immobilized hCDCP1-ECD
T1 construct: also called CDCP1-ECD; hCDCP1-ECD
T1 sequence: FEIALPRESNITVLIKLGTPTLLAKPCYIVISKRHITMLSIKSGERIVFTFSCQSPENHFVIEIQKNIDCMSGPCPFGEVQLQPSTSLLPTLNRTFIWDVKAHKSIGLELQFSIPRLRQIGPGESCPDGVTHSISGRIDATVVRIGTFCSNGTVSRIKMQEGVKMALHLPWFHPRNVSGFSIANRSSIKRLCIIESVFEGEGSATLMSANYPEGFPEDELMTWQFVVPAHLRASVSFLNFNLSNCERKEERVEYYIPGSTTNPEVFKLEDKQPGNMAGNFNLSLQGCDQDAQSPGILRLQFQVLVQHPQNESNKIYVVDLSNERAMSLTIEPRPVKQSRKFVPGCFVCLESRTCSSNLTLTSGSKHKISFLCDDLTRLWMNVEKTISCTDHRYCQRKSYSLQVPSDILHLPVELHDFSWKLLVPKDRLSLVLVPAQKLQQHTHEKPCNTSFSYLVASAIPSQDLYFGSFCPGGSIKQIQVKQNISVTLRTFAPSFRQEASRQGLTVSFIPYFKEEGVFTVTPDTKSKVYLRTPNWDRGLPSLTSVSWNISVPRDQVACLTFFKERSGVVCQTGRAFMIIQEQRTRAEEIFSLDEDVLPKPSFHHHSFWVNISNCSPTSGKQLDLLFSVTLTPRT

[2] = biological target: Short1 (huCDCP1_SH1_ECD aa1-216)_SBP (human) (UniProt Q9H5V8); assay: ELISA, SBP-CDCP1-Short1 captured on a streptavidin plate, antibody 0.1 ug in 50 ul, goat anti-mouse IgG-HRP, absorbance 370 nm/492 nm; the same antibody on Medium coating: 0,2330
[3] = biological target: Short5 (hu CDCP1_SH5_ECD (aa 1-361)_SBP) (human) (UniProt Q9H5V8); assay: ELISA, SBP-CDCP1-Short5 captured on a streptavidin plate, antibody 0.1 ug in 50 ul, goat anti-mouse IgG-HRP, absorbance 370 nm/492 nm; the same antibody on Medium coating: 0,2330
[4] = biological target: Short1 (huCDCP1_SH1_ECD aa1-216)_SBP (human) (UniProt Q9H5V8); assay: ELISA, SBP-CDCP1-Short1 captured on a streptavidin plate, antibody 0.1 ug in 50 ul, goat anti-mouse IgG-HRP, absorbance 370 nm/492 nm; the same antibody on Medium coating: 0,0420
[5] = biological target: Short5 (hu CDCP1_SH5_ECD (aa 1-361)_SBP) (human) (UniProt Q9H5V8); assay: ELISA, SBP-CDCP1-Short5 captured on a streptavidin plate, antibody 0.1 ug in 50 ul, goat anti-mouse IgG-HRP, absorbance 370 nm/492 nm; the same antibody on Medium coating: 0,0420

B1: Mab CDCP1-015 (antibody, V domains shown)
VH: QVHLKQSGPGLVQPSQSLSITCTVSGFSLTNFGLHWVRQSPGKGLEWLGVIWSGGVTDYNAAFISRLSISKDNSKSQVFFKMNSLQPNDTAIYYCARNYDHDYSMDYWGQGISVSVSS
VL: DVVLTQTPLSLPVIIGDQASISCKSTKSLLNSAGFTYLGWYLQKPGQSPQLLIYLVSNRFSGVPDRFSGSGSGTDFTLKISRVEAEDLGVYFCFQSSYLPLTFGSGTKLEIK
notes: also called CDCP1-0015; Murine CDCP1-015
Kd [1]: 0.47 nM | koff [1]: 0.00022 s⁻¹ | kon [1]: 460000 M⁻¹ s⁻¹ | Absorption [2]: 1.3 | Absorption [3]: 1.49

B2: CUB4 antibody (Deposition No. DSM ACC2551), murine (antibody, V domains shown)
VH: EVQLVESGGDLVKPGGSLKLSCAASGFTFNSYGMSWVRQTPDKRLEWVATISSGGSYTYYPDSVKGRFTISRDNAKNTLYLQMSSLKSEDTAMYYCARHPDYDGVWFAYWGQGTLVTVSA
VL: QIVLTQSPAIMSASPGEKVTMTCSVSSSVFYVHWYQQKSGTSPKRWIYDTSKLASGVPARFSGSGSGTSYSLTISSMEAEDAATYYCQQWNSNPPTFGGGTKLEIK
notes: Deposited murine monoclonal antibody; also called Mab CUB4; murine CUB4
Kd [1]: 0.52 nM | koff [1]: 0.00052 s⁻¹ | kon [1]: 990000 M⁻¹ s⁻¹ | Absorption [4]: 0.787 | Absorption [5]: 1.04
